The chains are these.
B1: TPR 5TU (parent)
chain: GGAUCUUCUCGAUCUAACAAAAAAGACAAAUCUGCCACAAAGCUUGAGAGCAUCUUCGGAUGCAGAGGCGGCAGCCUUCGGUGGCGCGAUAGCGCCAACGUUCUCAACUAUGACACGCAAAACGCGUGCUCCGUUGAAUGGAGUUUAUCAUG

Fewer inactive variants are shown than the library holds.

The variants in this series derive from B1. Briefly: polymerase ribozyme fitness, log enrichment relative to wild type (log ratio); higher = more active; in vitro selection for triplet polymerase activity. In short, it runs like this:
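PCR was used to build mutant libraries for each subunit of a heterodimeric triplet polymerase ribozyme, which were then transcribed. A single in vitro selection round, in triplicate, used a frozen incubation at −7 °C and recovered extended constructs by gel excision, streptavidin beads and RT-PCR. Fitness is the logarithm of genotype enrichment relative to wild-type enrichment, averaged over replicates with inverse-variance weights. The logarithm is base 2, and after Illumina sequencing only genotypes with ≥10 input reads and ≥1 read per output were kept.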
For the variant C10U A22G A49G A142C, the “polymerase ribozyme fitness (log ratio)” value was not above -4.2.
For G11C A23C G58A G81C C87A A138U, the “polymerase ribozyme fitness (log ratio)” value was not above -4.2.
Turning to A12G C93G A98G G141C, the “polymerase ribozyme fitness (log ratio)” value was -2.52.
C10G: the “polymerase ribozyme fitness (log ratio)” value was -2.78.
Turning to C10U, the “polymerase ribozyme fitness (log ratio)” value is -2.16.
C10G A40C U78G G84U G88U G141U: the “polymerase ribozyme fitness (log ratio)” value was not above -4.2.
For the variant C10G A29U G34U C38A C87G G88A A122U G136C, the “polymerase ribozyme fitness (log ratio)” value is not above -4.2.
Turning to A12C U31A A47G C79A, the “polymerase ribozyme fitness (log ratio)” value was not above -4.2.
The value for G11A A26U G48A U109C A147G was not above -4.2; that for A12C C76A A91U was not above -4.2; that for C10U A40G G50U C79G C99U C108G G117A was not above -4.2.
In the case of C10U U135A G141A C149G, the “polymerase ribozyme fitness (log ratio)” value was not above -4.2.
Take A12C A16U U145G: the “polymerase ribozyme fitness (log ratio)” value is -2.26.
The value for C10G C38U G50A U90A U127C G128U U145A was not above -4.2; that for A12G C96U was -0.793.
Then C10U A17G A23C A24C A26G U31G A39U U44A C54G C57G G86U A97U A142C, with not above -4.2; and C10U G25C G80A C87G, with not above -4.2; and G11C C54U C85U A115G, with -3.49.
As to G11U C54U C72A U90G G92U U111G U148G, the “polymerase ribozyme fitness (log ratio)” value was not above -4.2.
As for C10G A89G C103U U134G G141A U151A, the “polymerase ribozyme fitness (log ratio)” value is not above -4.2.
Then G11C G25U A52C C54U C95U A107G U144A, with not above -4.2; and A12C C99U C105G, with not above -4.2.
Take A12G C14A C57A C85G: the “polymerase ribozyme fitness (log ratio)” value is -3.75.
The value for G11A A41U A60G U77C C87A was not above -4.2; that for G11U U13G G62U C69U G81A C87U was not above -4.2.
In the case of G11C A12G A41U C76A G83A C103G C114A, the “polymerase ribozyme fitness (log ratio)” value is not above -4.2.
In the case of C10G A29C A30U G48U U55A A89U C93G G128U, the “polymerase ribozyme fitness (log ratio)” value is not above -4.2.
Then G11A C96G A120C U146C, with -1.48; and G11A C54G G94A, with -2.96; and G11C G50A U56A G83U C93A U127C U135C, with not above -4.2.
Regarding C10G A12G C27G A49G G62C G67A G68U C93U, the “polymerase ribozyme fitness (log ratio)” value is not above -4.2.
Consider G11U A30U G65U G70C C85G A91U C93A A150U, for which the “polymerase ribozyme fitness (log ratio)” value was not above -4.2.
A12C A20U C79U G84U: the “polymerase ribozyme fitness (log ratio)” value is not above -4.2.
As to G11U C14G G46A U55A C87U, the “polymerase ribozyme fitness (log ratio)” value is not above -4.2.
The value for A12G G88C was -3.71.
A12C G84A: the “polymerase ribozyme fitness (log ratio)” value was -0.118.
Then C10G A28C C51U C87U G88A A91C G117C G124U U130G, with not above -4.2; and G11C A49C U53G G141A, with not above -4.2; and A12G C54A C99U, with -1.32.
Consider A12C C54U, for which the “polymerase ribozyme fitness (log ratio)” value is -0.207.
As for G11A A26G U55A C87A G124C G143C U148C, the “polymerase ribozyme fitness (log ratio)” value is not above -4.2.
The value for A12G U44A G46A A66C G86A C93A A97U A138G A142G was not above -4.2.
For C10G C76A G83A A91U A106C C108A U130A, the “polymerase ribozyme fitness (log ratio)” value is not above -4.2.
For A12C C54U A91U, the “polymerase ribozyme fitness (log ratio)” value was not above -4.2.
Regarding G11C A20G G34U A137U, the “polymerase ribozyme fitness (log ratio)” value was not above -4.2.
In the case of C10U A52U C85A, the “polymerase ribozyme fitness (log ratio)” value was not above -4.2.
For A12C A30G C38A C51A U56G C85G C95U A106G U111A, the “polymerase ribozyme fitness (log ratio)” value was not above -4.2.
The value for G11A U56A C99U G143C was -3.7; that for C10G A20C A40U A64G G70U C87U was not above -4.2; that for G11U A21U G74C G92U was not above -4.2.
As for C10U A22U A29G U61A C95G, the “polymerase ribozyme fitness (log ratio)” value was -4.
For the variant C10U A22G U44A G100U C103A, the “polymerase ribozyme fitness (log ratio)” value is not above -4.2.
C10G A21U A91G: the “polymerase ribozyme fitness (log ratio)” value was not above -4.2.
As for A12C A16C U31C C32G U53A C93G C118G U151C, the “polymerase ribozyme fitness (log ratio)” value is not above -4.2.
As for G11U G42C G68A C85U G128U C132G U139G U148A, the “polymerase ribozyme fitness (log ratio)” value was not above -4.2.
On to C10U A22C A60G C87U G88U, for which the “polymerase ribozyme fitness (log ratio)” value was not above -4.2.
The value for A12C C57U C76G C96U was not above -4.2; that for C10U C54A C69U C75U C87A was not above -4.2; that for G11U G84A was -0.536.
Regarding G11A A12C A23C G46A A73U G80C A97U U109A U145A, the “polymerase ribozyme fitness (log ratio)” value was not above -4.2.
For A12G G83A G133C G143A U146G, the “polymerase ribozyme fitness (log ratio)” value was -3.34.
As for C10U U53A C54U U55A C75G C105U G143U U145C U148A, the “polymerase ribozyme fitness (log ratio)” value was not above -4.2.
G11A A89G G94A C105G G112C: the “polymerase ribozyme fitness (log ratio)” value was not above -4.2.
The value for A12G A91U C105G A106U was -4.11; that for C10G C69G G83C was not above -4.2.
Turning to C10U C27G C54U C95G C96G A110G, the “polymerase ribozyme fitness (log ratio)” value is not above -4.2.
On to C10U A17C C38U G58C C96G, for which the “polymerase ribozyme fitness (log ratio)” value is -3.69.
Turning to G11U C32A G50A C116U A121U C132U U144G, the “polymerase ribozyme fitness (log ratio)” value was not above -4.2.
Consider G11C C27U G92U, for which the “polymerase ribozyme fitness (log ratio)” value was -2.73.
In the case of A12G A19C A40G U45C G92A G141A, the “polymerase ribozyme fitness (log ratio)” value was not above -4.2.
For G11A C51G C87G A89U C125A U135G, the “polymerase ribozyme fitness (log ratio)” value was not above -4.2.
As to C10G G68C G83U A107C, the “polymerase ribozyme fitness (log ratio)” value is not above -4.2.
As to G11A C32A C93U, the “polymerase ribozyme fitness (log ratio)” value is not above -4.2.
As to C10G A97U U130G, the “polymerase ribozyme fitness (log ratio)” value is not above -4.2.
Then C10U U77G C87A A91C C108U G133A, with not above -4.2; and A12G U15G C69A C75U A106G A120G, with -2.52.
Regarding C10G A64C C76A G92C U135A A138G U151G, the “polymerase ribozyme fitness (log ratio)” value was not above -4.2.
As for A12G C85U C129A U151C, the “polymerase ribozyme fitness (log ratio)” value was not above -4.2.
For the variant G11U U53A C132U U146G, the “polymerase ribozyme fitness (log ratio)” value is -3.51.
As for C10U A29G A47C U55G A60U C95U U144A U146G, the “polymerase ribozyme fitness (log ratio)” value was not above -4.2.
For the variant G11C C38U C76U U78G A97G G124U, the “polymerase ribozyme fitness (log ratio)” value is not above -4.2.
Take A12G C116G G126U: the “polymerase ribozyme fitness (log ratio)” value was found to be 1.17.
The value for A12G C14U A19G A21U A28G G65C G84C G124U G143C U145C was not above -4.2.

(Values after the RNAGym collection of RNA variant scans (doi:10.1073/pnas.2313332121).)
